Test results published in publication PMC9668737, “Herpes simplex virus 1 protein pUL21 alters ceramide metabolism by activating the interorganelle transport protein CERT” (The Journal of Biological Chemistry, 2022).
Substitutions are numbered along the chain they refer to. Names and notes keep the numbering of the source. Values joined by “and” are separate entries in the source; they are usually repeats but may differ in a detail not shown here. Identical values can stand only once.

T1: pUL21^V382E-H6 (HSV-1 pUL21 with V382E) (herpes simplex virus 1, UniProt F8RG07 1-535, V382E)
T1 construct: tegument protein pUL21 of herpes simplex virus 1, UniProt F8RG07, with V382E; the text also writes H6-pUL21^V382E; also called H6-pUL21^V382E; source: E. coli T7 Express lysY/Iq, purified (Ni-NTA, SEC); not shown: His6, C-terminal, kept
T1 sequence: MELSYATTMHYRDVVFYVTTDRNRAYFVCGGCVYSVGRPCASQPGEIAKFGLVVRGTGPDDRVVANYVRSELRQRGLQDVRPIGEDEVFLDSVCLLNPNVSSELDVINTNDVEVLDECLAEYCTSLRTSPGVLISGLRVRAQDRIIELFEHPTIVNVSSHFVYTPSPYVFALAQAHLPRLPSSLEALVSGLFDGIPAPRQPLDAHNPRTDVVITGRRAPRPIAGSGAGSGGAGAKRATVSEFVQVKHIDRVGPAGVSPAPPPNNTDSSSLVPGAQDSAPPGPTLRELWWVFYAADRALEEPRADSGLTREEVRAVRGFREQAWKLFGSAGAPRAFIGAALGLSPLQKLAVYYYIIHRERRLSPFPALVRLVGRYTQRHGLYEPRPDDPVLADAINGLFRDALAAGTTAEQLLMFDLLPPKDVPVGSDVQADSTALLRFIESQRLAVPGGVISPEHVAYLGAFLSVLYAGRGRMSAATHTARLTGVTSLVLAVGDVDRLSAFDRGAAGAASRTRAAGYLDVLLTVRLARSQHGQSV

T2: H6-pUL21C (C-terminal domain of HSV-1 pUL21, amino acids 275 to 535) (herpes simplex virus 1, UniProt F8RG07 275-535)
T2 construct: C-terminal domain of pUL21 of herpes simplex virus 1, residues 275-535 of UniProt F8RG07; source: E. coli T7 Express lysY/Iq, purified (Ni-NTA, SEC); not shown: MAH6, N-terminal, kept
T2 sequence: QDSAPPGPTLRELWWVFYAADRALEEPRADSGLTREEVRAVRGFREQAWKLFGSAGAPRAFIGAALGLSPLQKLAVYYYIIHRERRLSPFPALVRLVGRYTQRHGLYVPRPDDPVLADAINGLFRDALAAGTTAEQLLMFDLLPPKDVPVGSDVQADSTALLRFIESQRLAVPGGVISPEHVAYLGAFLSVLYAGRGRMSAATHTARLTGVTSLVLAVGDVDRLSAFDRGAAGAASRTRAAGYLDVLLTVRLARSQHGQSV

T3: H6-pUL21C (herpes simplex virus 1 (HSV-1), UniProt F8RG07 275-535)
T3 construct: HSV-1 pUL21 C-terminal domain, amino acids 275-535, UniProt F8RG07; Cloned in pOPTH; Monomer by SEC-MALS and SAXS; also called C-terminal domain of pUL21; source: E. coli T7 Express lysY/Iq, purified (Ni-NTA, SEC); not shown: MAH6, N-terminal, kept
T3 sequence: T2 sequence

T4: pUL21-H6 (herpes simplex virus 1 (HSV-1), UniProt F8RG07 1-535)
T4 construct: HSV-1 pUL21, UniProt F8RG07; some paragraphs print H6-pUL21; also called H6-pUL21; WT pUL21; source: E. coli T7 Express lysY/Iq, purified (Ni-NTA, SEC); not shown: His6, C-terminal, kept
T4 sequence: T1 sequence with E382V

T5: StrepII-CERT^P (UniProt Q9Y5P4-2 1-598, hyperphosphorylated (sites not given))
T5 sequence (looked up): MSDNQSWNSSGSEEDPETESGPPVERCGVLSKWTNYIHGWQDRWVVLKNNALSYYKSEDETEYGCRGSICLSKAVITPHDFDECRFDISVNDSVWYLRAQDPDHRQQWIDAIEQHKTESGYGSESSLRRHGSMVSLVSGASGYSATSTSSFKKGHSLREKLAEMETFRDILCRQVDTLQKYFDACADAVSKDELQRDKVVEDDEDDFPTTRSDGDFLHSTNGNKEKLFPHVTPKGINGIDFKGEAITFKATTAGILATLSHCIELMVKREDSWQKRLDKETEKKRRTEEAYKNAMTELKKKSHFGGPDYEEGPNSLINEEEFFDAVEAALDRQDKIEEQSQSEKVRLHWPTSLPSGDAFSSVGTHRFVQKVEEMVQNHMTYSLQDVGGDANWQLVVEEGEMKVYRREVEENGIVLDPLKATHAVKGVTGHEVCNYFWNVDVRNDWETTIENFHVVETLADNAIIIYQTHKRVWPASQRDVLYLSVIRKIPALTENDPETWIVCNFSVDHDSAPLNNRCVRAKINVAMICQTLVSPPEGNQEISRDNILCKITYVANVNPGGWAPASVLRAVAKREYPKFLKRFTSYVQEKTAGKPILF

T6: pUL21-H6 (HSV-1 pUL21) (herpes simplex virus 1, UniProt F8RG07 1-535)
T6 construct: tegument protein pUL21 of herpes simplex virus 1, UniProt F8RG07; source: E. coli T7 Express lysY/Iq, purified (Ni-NTA, SEC); not shown: His6, C-terminal, kept
T6 sequence: T1 sequence with E382V

B1: H6-miniCERTL (CERTL residues 20-131 plus 351-624) (domain or fragment, human, UniProt Q9Y5P4-1 20-131, looked up)
chain: SGPPVERCGVLSKWTNYIHGWQDRWVVLKNNALSYYKSEDETEYGCRGSICLSKAVITPHDFDECRFDISVNDSVWYLRAQDPDHRQQWIDAIEQHKTESGYGSESSLRRHGTSLPSGDAFSSVGTHRFVQKPYSRSSSMSSIDLVSASDDVHRFSSQVEEMVQNHMTYSLQDVGGDANWQLVVEEGEMKVYRREVEENGIVLDPLKATHAVKGVTGHEVCNYFWNVDVRNDWETTIENFHVVETLADNAIIIYQTHKRVWPASQRDVLYLSVIRKIPALTENDPETWIVCNFSVDHDSAPLNNRCVRAKINVAMICQTLVSPPEGNQEISRDNILCKITYVANVNPGGWAPASVLRAVAKREYPKFLKRFTSYVQEKTAGKPILF
notes: human CERTL, PH domain and start of the middle region, residues 20-131 of Q9Y5P4-1; human CERTL, end of the middle region and STARTL domain, residues 351-624 of Q9Y5P4-1 (middle region residues 132-350 left out); source: E. coli T7 Express lysY/Iq, purified (Ni-NTA, SEC); not shown: MAH6, N-terminal, kept
B2: H6-miniCERTL (domain or fragment, human, UniProt Q9Y5P4-1 20-624, looked up)
chain: B1 chain
notes: human CERTL, UniProt Q9Y5P4-1, residues 20-131 plus 351-624 (PH and STARTL domains joined by a retained 23 amino acid stretch of the middle region); Cloned into pOPTH; Monomer by SEC-MALS; source: E. coli T7 Express lysY/Iq, purified (Ni-NTA, SEC); not shown: MAH6, N-terminal, kept
B3: pUL21^V382E-H6 (natural protein)
chain: T1 sequence
B4: StrepII-CERTL^P (hyperphosphorylated human CERTL) (natural protein, UniProt Q9Y5P4-1 1-624, looked up)
chain: MSDNQSWNSSGSEEDPETESGPPVERCGVLSKWTNYIHGWQDRWVVLKNNALSYYKSEDETEYGCRGSICLSKAVITPHDFDECRFDISVNDSVWYLRAQDPDHRQQWIDAIEQHKTESGYGSESSLRRHGSMVSLVSGASGYSATSTSSFKKGHSLREKLAEMETFRDILCRQVDTLQKYFDACADAVSKDELQRDKVVEDDEDDFPTTRSDGDFLHSTNGNKEKLFPHVTPKGINGIDFKGEAITFKATTAGILATLSHCIELMVKREDSWQKRLDKETEKKRRTEEAYKNAMTELKKKSHFGGPDYEEGPNSLINEEEFFDAVEAALDRQDKIEEQSQSEKVRLHWPTSLPSGDAFSSVGTHRFVQKPYSRSSSMSSIDLVSASDDVHRFSSQVEEMVQNHMTYSLQDVGGDANWQLVVEEGEMKVYRREVEENGIVLDPLKATHAVKGVTGHEVCNYFWNVDVRNDWETTIENFHVVETLADNAIIIYQTHKRVWPASQRDVLYLSVIRKIPALTENDPETWIVCNFSVDHDSAPLNNRCVRAKINVAMICQTLVSPPEGNQEISRDNILCKITYVANVNPGGWAPASVLRAVAKREYPKFLKRFTSYVQEKTAGKPILF
modifications: hyperphosphorylated (CERTL^P); sites not given
notes: ceramide transport protein CERT, longer cytoplasmic isoform CERTL (with exon 11), human, UniProt Q9Y5P4-1; not shown: StrepII, N-terminal, kept
B5: StrepII-CERTL^S132A (constitutively hypophosphorylated human CERTL) (natural protein, UniProt Q9Y5P4-1 1-624, looked up)
chain: B4 chain with S132A
notes: ceramide transport protein CERT, longer cytoplasmic isoform CERTL, human, UniProt Q9Y5P4-1, with S132A; source: Freestyle 293F cells, stably transfected, doxycycline-induced, purified (StrepTrap, SEC); not shown: StrepII, N-terminal, kept

Legend:
[1] = biological target: T1, pUL21^V382E-H6 (HSV-1 pUL21 with V382E); experiment: ITC; CERTL forms in the syringe titrated into pUL21 forms in the cell; 25 °C; 20 mM Tris pH 8.5, 500 mM NaCl, 0.5 mM TCEP; one-site binding model; single titrations; conditions: both partners purified
[2] = biological target: T2, H6-pUL21C (C-terminal domain of HSV-1 …); experiment: as above; conditions: both partners purified
H6-pUL21C = biological target: T3, H6-pUL21C; experiment: ITC; 25 °C; 20 mM Tris pH 8.5, 500 mM NaCl, 0.5 mM TCEP; CERTL forms in the syringe titrated into pUL21 forms in the cell; one-site binding model; conditions: both partners purified
pUL21-H6 = biological target: T4, pUL21-H6; experiment: as above; conditions: both partners purified
pUL21^V382E-H6 = biological target: B3; experiment: as above; conditions: both partners purified
StrepII-CERT^P = biological target: T5, StrepII-CERT^P; experiment: cell-based or functional assay
pUL21-H6 (HSV-1 pUL21) = biological target: T6, pUL21-H6 (HSV-1 pUL21); experiment: ITC; CERTL forms in the syringe titrated into pUL21 forms in the cell; 25 °C; 20 mM Tris pH 8.5, 500 mM NaCl, 0.5 mM TCEP; one-site binding model; single titrations; conditions: both partners purified

## B1
[1]
  Kd: 8.39 µM and 8.83 µM and 7.04 µM
  stoichiometry N: 1.22 and 1.01 and 1.25
[2]
  Kd: 5.5 µM and 3.15 µM
  stoichiometry N: 0.95 and 1

## B2
H6-pUL21C
  dH: -3.84 kcal/mol
  stoichiometry N: 0.97
pUL21-H6
  Kd: 1.04 µM
  dH: -8.65 kcal/mol
  stoichiometry N: 0.89
pUL21^V382E-H6
  Kd: 8.09 µM
  dH: -7.2 kcal/mol
  stoichiometry N: 1.16

## B3
StrepII-CERT^P
  EC50 of pUL21^V382E-H6 (62.5 nM to 4 μM) for accelerating GST-PP1-mediated dephosphorylation of 0.5 μM CERT^P in vitro, all proteins purified, 25 nM GST-PP1γ, 30 min at 30 °C: 3.33 μM

## B4
pUL21-H6 (HSV-1 pUL21)
  stoichiometry N: 0.76 and 0.72 and 0.74

## B5
pUL21-H6 (HSV-1 pUL21)
  stoichiometry N: 0.93 and 1.01
